{"source": "paper PMC5256923", "about": "“RNA and DNA Targeting by a Reconstituted Thermus thermophilus Type III-A CRISPR-Cas System” (PLoS ONE, 2017)", "molecules": {"B1": {"name": "T. thermophilus Cas10/Csm1 (natural protein, UniProt Q53W19 1-805, looked up)", "chain": "MLGDGLSVALAGLLHDVGKLYSRARWGERDDQVPDRTHTAYTAHFVREHAGLFRGAGLDPDWLARTASRHHEGWRDRPQYRPETPEEWCVALADTYASKEREEGEGGGSPPEVPLSPPFRRLLLGGEEGREGGYSPVGAGGRVGLEAGGLYPEERPNVSKDVYKRLLERLEGRLEEMARFSLGKEALVLNLALALQETLSLVPSDTQSEPDVSLYDHLRLTAAIAHALWLFHGGSPSAQNLRQDGEKFLLVVGDMGGIQGHIYRIAGAEAGVGGIAKRLRARSLEVSLAAEAMALGLLWRLGLTSLNRILGAGGKFYLLLPNTEEARAALEGTREAWGRWALKRGGSLVPHLAWVAFRGQDFRDFAALLKRLHEALAREKLRPFAFLASTGGVLGAPLRPCAACGLEPARRDEPGSLCPDCEREAALGARLPRSDRVGFFLEEAPRPYLDFPGLKVGLGGPLEGAFHLFRARLDFAPWPDPSEAKPLLGHLPRVEHALKAKGWSLEAYRAWAEEEGLLEDEEPHPEKVLTFAELAALSEGAPYLGALMLDADRMGEAFATGFRREGRDLATPSRLAALSRTLEVFFTTEVLTLLEEPRRYRERLGWDDLEAQRKEARYPLLYSVYSGGDDLFLLGPWDALLDFALDLERLYRLFTRHPRLTLSGGFLLVPPSLPVPELARLLGEAEKRAKAEGRERLFLFGQAVPWETLRGLRAWAEGLRQDLRAERVSRAQVYRWLLLWRRFSPLEDPGERMRYKPLLAYALRRVRERDEEAWKRYLKLLDHQDPAWAYLPVWVQWALYRERRV", "notes": "Cas10/Csm1 of Thermus thermophilus (locus TTHB147), codon-optimized gene; also called TTHB147; source: E. coli BL21(λDE3), co-expressed with the other Csm subunits, Cas6A and crRNA 4.5; in lysate, and co-purified in the TthCsm complex (Ni-NTA, Superose 6)"}}, "key": {"[1]": {"molecular_target": "T. thermophilus Csm5, His10 tag cleaved off with HRV 3C protease (T. thermophilus) (UniProt Q53W18)", "assay": "native MS; native nanoESI-MS, positive ion mode, about 5 uM of the co-expressed and co-purified TthCsm complex (with crRNA) exchanged into 1 M ammonium acetate, 5% glycerol"}, "[2]": {"molecular_target": "T1, T. thermophilus Csm5, His10 tag cleaved off with HRV 3C protease (T. thermophilus, UniProt Q53W18 1-397)", "T1 construct": "Csm5 of Thermus thermophilus (locus TTHB151), codon-optimized gene; Same construct as m1 after 3C cleavage; also called TTHB151; source: E. coli BL21(λDE3), co-expressed with the other Csm subunits, Cas6A and crRNA 4.5; co-purified in the TthCsm complex (Ni-NTA, 3C cleavage, Ni-NTA, Superose 6)", "T1 sequence (looked up)": "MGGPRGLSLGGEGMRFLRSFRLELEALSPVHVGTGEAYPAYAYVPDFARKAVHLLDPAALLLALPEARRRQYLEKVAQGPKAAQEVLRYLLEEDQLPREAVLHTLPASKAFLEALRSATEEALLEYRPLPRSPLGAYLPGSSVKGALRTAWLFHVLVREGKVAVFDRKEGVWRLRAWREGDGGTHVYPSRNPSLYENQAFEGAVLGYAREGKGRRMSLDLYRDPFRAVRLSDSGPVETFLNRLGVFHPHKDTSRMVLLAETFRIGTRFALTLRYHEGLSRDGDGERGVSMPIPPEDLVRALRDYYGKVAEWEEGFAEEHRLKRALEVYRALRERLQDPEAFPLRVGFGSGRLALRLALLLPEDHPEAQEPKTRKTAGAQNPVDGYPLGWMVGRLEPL", "assay": "native MS; native nanoESI-MS, positive ion mode, about 5 uM of the co-expressed and co-purified TthCsm complex (with crRNA) exchanged into 1 M ammonium acetate, 5% glycerol", "conditions": "both partners purified"}}, "note": "Several values for one entry are separate records, joined by “and”; a condition that tells them apart may be missing. Equal entries are not always repeated."}
{"molecule": "T. thermophilus Csm2 (natural protein)", "values": [{"measurement": "stoichiometry N", "setting": "[1]", "result": "3 and 4"}]}
{"molecule": "T. thermophilus Csm3 (natural protein)", "values": [{"measurement": "stoichiometry N", "setting": "[1]", "result": "6 and 4"}]}
{"molecule": "T. thermophilus Csm4 (from UniProt Q53W19 1-805) (natural protein)", "values": [{"measurement": "stoichiometry N", "setting": "[1]", "result": 1}]}
{"molecule": "B1", "values": [{"measurement": "stoichiometry N", "setting": "[2]", "result": 1}]}
